B1: monoclonal antibody 5C3 (antibody, V domains shown)
VH: QVQLQQPGAELVRPGASVKLSCKASGYTFTTYWMNWVKQRPGQGLEWIGMIDPSDSETHYNQMFKDKATLTVDTSSSTAYMQLSSLTSEDSAVYYCARGRSWFVYWGQGTLVTVSS
VL: DIVLTQSPASLAVSLGQRATISCRASKSVSSSGYSYVHWYQQKPGQPPKLLIYLASNLESGVPARFSGSGSGTDFTLNIHSVEEEDAATYYCQHNRELPYTFGGGTKLEIKR
notes: also called mAb 5C3; 5C3^647 (Alexa Fluor 647 conjugate)
B2: monoclonal antibody 10C10 (antibody, V domains shown)
VH: EVQLQQSGPELVKPGVSMRISCKASGFSFTDYTMNWVKQSHRKNLEWIGLVNPYNGGTSHNPNFKGKATLTVDKSSSTAYMELLSLTSEDSAVYYCARRGRRDYALDYWGQGTSVTVSS
VL: DIVLTQSPVTLSVTPGDSVSLSCRASQSVSNNLHWYQQKSHESPRLLIKYASQSISGIPSRFRGSGSGTDFTLSIISVETEDFGMYFCQQSNIWPHTFGAGTKLELKR
notes: also called mAb 10C10; 10C10^647 (Alexa Fluor 647 conjugate)

Tests used:
[1] = target: T1, cyclic gH peptides (7, 10 and 13 aa libraries) spanning gH residues 485-493 (Human cytomegalovirus, cyclized with a thioether linkage between the N' and C' termini); test: cyclic peptide microarray (PEPperCHIP), anti-mouse DyLight680 detection
T1 construct: also called region spanning residues 485-493

[2] = target: T2, gH alanine mutant 490-491 transfected into HEK293 cells with gL (Human cytomegalovirus (consensus …)); test: flow cytometry, HEK293 cells transfected with gH alanine mutant and gL; % of gH-positive cells compared to WT
T2 construct: whole, on cells

[3] = target: T3, gH mutant 480-486 (consecutive alanine substitutions) transfected into HEK293 cells with gL (Human cytomegalovirus (consensus …)); test: as above
T3 construct: whole, on cells; also called 480-486 mutant; gH mutant 480-86

[4] = target: T4, gH alanine mutant 486-487 transfected into HEK293 cells with gL (Human cytomegalovirus (consensus …)); test: as above
T4 construct: whole, on cells

[5] = target: T5, gH alanine mutant 482-483 transfected into HEK293 cells with gL (Human cytomegalovirus (consensus …)); test: as above
T5 construct: whole, on cells

[6] = target: gH alanine mutant 478-488 (label as in Table 6); test: as above
[7] = target: T6, gH alanine mutant 484-485 transfected into HEK293 cells with gL (Human cytomegalovirus (consensus …)); test: as above
T6 construct: whole, on cells

[8] = target: T7, gH alanine mutant 488-489 transfected into HEK293 cells with gL (Human cytomegalovirus (consensus …)); test: as above
T7 construct: whole, on cells

[9] = target: T8, gH mutant 485-492 (consecutive alanine substitutions) transfected into HEK293 cells with gL (Human cytomegalovirus (consensus …)); test: as above
T8 construct: whole, on cells; also called 485-492 mutant; gH mutant 485-92

[10] = target: T9, gH alanine mutant 480-481 transfected into HEK293 cells with gL (Human cytomegalovirus (consensus …)); test: as above
T9 construct: whole, on cells

[11] = target: HCMV glycoprotein gH, strain TR (virions) (Human cytomegalovirus strain TR); test: cell-based or functional assay
[12] = target: HCMV glycoprotein gH, strain AD169 (AD169IE2-YFP-infected MRC5 cells and virions) (Human cytomegalovirus strain AD169, UniProt P12824 24-743); test: cell-based or functional assay
[13] = target: T10, HCMV glycoprotein gH, strain TB40/E (U373^gH cells, TB40/E-infected cells, virions) (Human cytomegalovirus strain TB40/E); test: cell-based or functional assay
[14] = target: HCMV glycoprotein gH, strain VHL/E (virions) (Human cytomegalovirus strain VHL/E); test: cell-based or functional assay
[15] = target: HCMV glycoprotein gH, strain DAVIS (virions) (Human cytomegalovirus strain DAVIS); test: cell-based or functional assay
[16] = target: T10, HCMV glycoprotein gH, strain TB40/E …; test: cell-based or functional assay; remark: listed apart in the source

Row | Binder | Avg. binding (% of mass) [2] [%] | Avg. binding (% of mass) [3] [%] | Avg. binding (% of mass) [4] [%] | Avg. binding (% of mass) [5] [%] | Avg. binding (% of mass) [6] [%] | Avg. binding (% of mass) [7] [%] | Avg. binding (% of mass) [8] [%] | Avg. binding (% of mass) [9] [%] | Avg. binding (% of mass) [10] [%] | IC50, strain TR, epithelial cells, α-IE staining [11] [µg/mL] | IC50, strain TR, fibroblasts, plaque assay [11] [µg/mL] | IC50, strain TR, fibroblasts, α-IE staining [11] [µg/mL] | IC50, neutralization of AD169IE2-YFP infection of fibroblasts (IE2-YFP read-out) [12] [µg/mL] | IC50, neutralization of TB40/E FLAG-YFP infection of fibroblasts (FLAG-YFP read-out) [13] [µg/mL] | IC50, strain TB40/E, epithelial cells, α-IE staining [13] [µg/mL] | IC50, strain TB40/E, fibroblasts, plaque assay [13] [µg/mL] | IC50, strain TB40/E, fibroblasts, α-IE staining [13] [µg/mL] | IC50, strain VHL/E, epithelial cells, α-IE staining [14] [µg/mL] | IC50, strain VHL/E, fibroblasts, plaque assay [14] [µg/mL] | IC50, strain VHL/E, fibroblasts, α-IE staining [14] [µg/mL] | also measured
1 | B1 | 92 | 14 | 56 | 85 | 100 | 76 | 113 | 49 | 72 | 0.16 | 2.13 | 0.63 | 0.24 | 0.07 | 0.96 | 0.45 | 0.88 | 0.11 | 0.02 | 0.02 | fold over background [1]: ~3 fold; IC50, strain Davis, fibroblasts, plaque assay [15]: 0.22 µg/mL; IC50, neutralization of TB40/E FLAG-YFP infection of ARPE-19 epithelial cells (YFP read-out) [16]: 0.04 µg/mL
2 | B2 | 72 | 3 | 2 | 91 | 100 | 3 | 98 | 2 | 70 | 0.44 | 2.43 | 2.34 | 0.5 | 0.38 | 1.35 | 1.28 | 4.18 | 0.11 | 0.24 | 0.24 | IC50, strain Davis, fibroblasts, plaque assay [15]: 0.37 µg/mL; IC50, neutralization of TB40/E FLAG-YFP infection of ARPE-19 epithelial cells (YFP read-out) [16]: 0.13 µg/mL

Reference: patent publication US20200330588A1 (ICAHN SCHOOL OF MEDICINE AT MOUNT SINAI, published 2020)
